Measurements: publication PMC7865891
pKd: −log10 of the molar value.

What was measured:
[1] = test system: β-conglutin (lupin (species not stated)); assay: MST; details: 0.05% Tween-20, 25 C, Hill EC50 fit, PBS (10 mM phosphate, 135 mM NaCl, 2.7 mM KCl, pH 7.4) + 1.5 mM MgCl2, MST +0.05% Tween-20, 25 C (20 mM KCl for TT derivatives), BLI +0.1% Tween-20, 30 C, SPR …
[2] = test system: β-conglutin (lupin (species not stated)); assay: SPR; details: 1:1 kinetic model, protein immobilized, PBS (10 mM phosphate, 135 mM NaCl, 2.7 mM KCl, pH 7.4) + 1.5 mM MgCl2, MST +0.05% Tween-20, 25 C (20 mM KCl for TT derivatives), BLI +0.1% Tween-20, 30 C
[3] = test system: β-conglutin (lupin (species not stated)); assay: BLI; details: 2:1 heterogeneous model, 30 C, 0.1% Tween-20, 5' TEG spacer, PBS (10 mM phosphate, 135 mM NaCl, 2.7 mM KCl, pH 7.4) + 1.5 mM MgCl2, MST +0.05% Tween-20, 25 C (20 mM KCl for TT derivatives), BLI +0.1% Tween-20, 30 C, SPR …

## GGTGGGGGTGG [Cy5-11-mer]
[1]; binding buffer
  pKd: 8.98

## GGTGGGGGTGGTT [11-mer-TT]
[2]
  pKd: 7.07

## GGTGGGGGTGGTT [Cy5-11-mer-TT]
[1]; 20 mM KCl
  pKd: 8.59

## TTGGTGGGGGTGG [Cy5-TT-11-mer]
[1]; 20 mM KCl
  pKd: 8.73

## TTGGTGGGGGTGG [TT-11-mer]
[2]
  pKd: 8.14

## TTGGTGGGGGTGGTT [Cy5-TT-11-mer-TT]
[1]; 20 mM KCl
  pKd: 8.57

## TTGGTGGGGGTGGTT [TT-11-mer-TT]
[2]
  pKd: 7.27

## TTTTTTTTTTTTTTTGGTGGGGGTGG [Biotin-TEG-T15-11-mer]
[3]; first KD
  pKd: 8.16
[3]; second KD
  pKd: 7.63
